Test results reported in patent publication US12618835B2, “Multiplex microelectrode array for detection of proteases as biomarkers” (Kansas State University Research Foundation, priority 2021, dated 2026).
Where no end group is shown, it is not given here. [ ]: non-standard residue; d: D form. The star is where a group is joined. aminomethylferrocene = [Fe+2].c1cc[c-](CN*)c1.c1cc[cH-]c1; Ava = NCCCCC(=O)O

Assays:
[1] = target: T1, recombinant human cathepsin B (rhCB) (Homo sapiens, UniProt P07858); test: Electrochemical (ACV) proteolysis of peptide-Fc on Au MEA by activated rhCB in different buffers, Example 3; format: biochemical
T1 construct: purchased R&D Systems Inc. (Minneapolis, MN)
Experimental: Gold MEA Functionalization. The diced Au MEA chip was sonicated in acetone for 5 min to remove the photoresist protection layer, followed by rinsing with methanol and subsequently with isopropanol for 30 seconds. The Au MEA was then rinsed with deionized water and blow-dried with N2. Prior to use, the Au MEA chip was mounted in a home-made electrochemical cell described in our previous report and electrochemically cleaned by cycling voltammetry (CV) between −0.60 to 0.70 V in 0.10 M phosphate buffer (0.038 M NaH2PO4 and 0.061 M Na2HPO4, pH=7.4) vs. a mercury/mercurous sulfate reference electrode (MSE) filled with a saturated K2SO4 solution (CH Instruments, Austin, TX). The cleaned Au MEA was then rinsed with deionized water and blow-dried with N2. All electrochemical protease detection measurements in this study used an in-house synthesized hexapeptide H-15 attached with a ferrocene (Fc) redox tag, as the substrate (referred to as “peptide-Fc” in this study). […] To functionalize the MEA with this peptide-Fc substrate, the chip was first incubated in 1.0 mM 6-mercapto-1-hexanol mixed with 0.2 mM 6-mercapto-1-hexanoic acid in deionized water for 40 min to form a close-packed self-assembled monolayer (SAM) due to thiol adsorption on Au surface. The formed alkanethiol layer serves as an insulator to reduce the background current while providing a ratio of about 1:5 between —COOH and —OH groups at the top surface. The electrode was then incubated in 2.0 mM peptide-Fc substrate mixed with 0.2 g/L 1-ethyl-3-(3-dimethylaminopropyl)carbodiimide (EDC) and 0.2 g/L N-hydroxysulfosuccinimide (Sulfo-NHS) as coupling agents for 2 hours at room temperature to form amide bonds between the amine group in the peptide-Fc substrate and the carboxylic acid group on the SAM surface. […] The functionalized chip was rinsed with deionized water for 30 seconds to remove the physically adsorbed molecules.
Electrochemical Experiments. Electrochemical experiments were performed on a specially designed electrochemical cell mounted on a large copper block for temperature control by circulating thermostatic silicone liquid through the internal channels. The thermal circulator (Julabo, Allentown, PA) was set to achieve a temperature of 38.6° C. Two buffer solutions, 0.5×PB (pH=7.4) and 25 mM MES (pH=5.0), were used. In some experiments, the rhCB was activated by incubation in 25 mM MES buffer (pH=5.0) containing 5 mM DTT for 15 min. […] Fc signal on the Au surface was detected by alternating current voltammetry (ACV) with an AC frequency of 300 Hz and a voltage amplitude of 100 mV on a DC ramp from −0.45 V to 0.20 V vs. MSE. Electrochemical measurements were performed using an IVIUM n-Stat potentiostat (Eindhoven, The Netherlands), which allows measurement of up to ten independent working electrodes simultaneously versus a common MSE reference electrode and a common Pt coil counter electrode.
Principle of the Electrochemical Detection of Protease Activity. The sensing principles are described in Example 1. As shown in the cyclic voltammogram (CV) in FIG. 27, the Fc tag in the peptide-Fc functionalized at the Au microelectrode surface can be oxidized into ferrocenium (Fc^+), giving a pair of well-defined redox waves centered at −0.15 V (vs. MSE). These peaks disappeared after the peptide-Fc substrate was cleaved by proteolysis. The surface concentration of peptide-Fc substrate ΓSs can be derived from the integrated area under the oxidation peak to give ΓSs=3.1 pmol/cm^2, corresponding to an average nearest-neighbor distance of 7.9 nm between the peptide-Fc. This low density allows easy access by the protease. As further shown in FIG. 28, the weak faradaic signal can be amplified using ACV, i.e., applying an AC voltage on top of a DC potential ramp from −0.45 V to 0.20 V (vs. MSE). […]

cathepsin B = cathepsin B (Homo sapiens, UniProt P07858); parameters: purchased R&D Systems Inc. (Minneapolis, MN); conditions: previous finding; cited from earlier work

Substance	inverse decay constant (1/τ) ([1]; 1.0 nM activated cathepsin B, 0.2×PBS pH=7.4)	average measured activity (1/τ) ([1]; 1.0 nM activated cathepsin B, 0.5×PB pH=7.4, 8 channels)	inverse decay constant (1/τ) ([1]; 1.0 nM activated cathepsin B, 0.5×PBS pH=7.4)	inverse decay constant (1/τ) ([1]; 1.0 nM activated cathepsin B, 1×PBS pH=7.4)	activity in 0.5×PB relative to 25 mM MES buffer ([1]; 1.0 nM activated cathepsin B, same Au MEA chip)	LOD of activity ([1]; 0.5×PB, 3σblank+(1/τ)blank)	LOD of cathepsin B concentration ([1]; 0.5×PB, 3σblank/m)	saturated 1/τ value ([1]; rhCB concentration above 1.0 nM, 0.5×PB)	cleavage site by cathepsin B (found previously) (cathepsin B)
H2N-(CH2)4-CO-Pro-Leu-Ala-Phe-Val-Ala-NH-CH2-Fc ([Ava]PLAFVA-aminomethylferrocene) [Peptide H-15]	(7.65±0.42)×10^−4 s^−1	(42.1±3.7)×10^−4 s^−1	(11.44±0.64)×10^−4 s^−1	(4.2±1.1)×10^−4 s^−1	~40 times	0.000849 s⁻¹	57.1 ± 0.41 pM	about 45×10^−4 s^−1	–
H2N-(CH2)4-CO-Pro-Leu-Arg-Phe-Gly-Ala-NH-CH2-Fc ([Ava]PLRFGA-aminomethylferrocene) [Peptide H-3]	–	–	–	–	–	–	–	–	between the Gly-Ala residues and between the Phe-Gly residues
